In patent publication US9260754B2, “Connexin mutation detection for lymphatic variation and disease” (University of Pittsburgh—Of the Commonwealth System of …, priority 2010, dated 2016):

B1: WT-hCx47: human wild type Cx47 construct in bicistronic pIRES2-EGFP vector, expressed in HeLa cells or LECs (protein, UniProt Q5T442 1-439, looked up)
Gap junction gamma-2 protein: MTNMSWSFLTRLLEEIHNHSTFVGKVWLTVLVVFRIVLTAVGGEAIYSDEQAKFTCNTRQPGCDNVCYDAFAPLSHVRFWVFQIVVISTPSVMYLGYAVHRLARASEQERRRALRRRPGPRRAPRAHLPPPHAGWPEPADLGEEEPMLGLGEEEEEEETGAAEGAGEEAEEAGAEEACTKAVGADGKAAGTPGPTGQHDGRRRIQREGLMRVYVAQLVARAAFEVAFLVGQYLLYGFEVRPFFPCSRQPCPHVVDCFVSRPTEKTVFLLVMYVVSCLCLLLNLCEMAHLGLGSAQDAVRGRRGPPASAPAPAPRPPPCAFPAAAAGLACPPDYSLVVRAAERARAHDQNLANLALQALRDGAAAGDRDRDSSPCVGLPAASRGPPRAGAPASRTGSATSAGTVGEQGRPGTHERPGAKPRAGSEKGSASSRDGKTTVWI
B2: G146S: Cx47 missense mutant G146S (436G>A), intracellular loop, construct expressed in HeLa cells or LECs (protein, listed as Homo sapiens)
chain: MSWSFLTRLLEEIHNHSTFVGKVWLTVLVVFRIVLTAVGGEAIYSDEQAKFTCNTRQPGCDNVCYDAFAPLSHVRFWVFQIVVISTPSVMYLGYAVHRLARASEQERRRALRRRPGPRRAPRAHLPPPHAGWPEPADLGEEEPMLSLGEEEEEEETGAAEGAGEEAEEAGAEEACTKAVGADGKAAGTPGPTGQHDGRRRIQREGLMRVYVAQLVARAAFEVAFLVGQYLLYGFEVRPFFPCSRQPCPHVVDCFVSRPTEKTVFLLVMYVVSCLCLLLNLCEMAHLGLGSAQDAVRGRRGPPASAPAPAPRPPPCAFPAAAAGLACPPDYSLVVRAAERARAHDQNLANLALQALRDGAAAGDRDRDSSPCVGLPAASRGPPRAGAPASRTGSATSAGTVGEQGRPGTHERPGAKPRAGSEKGSASSRDGKTTVWI

How the values were obtained:
[1] = test system: HeLa cells; experiment: Cx47 gap junction plaque formation by immunofluorescent confocal microscopy in transfected HeLa cells; format: cell-based, human; settings: near confluent transfected HeLa cells
Protocol: Human neonatal foreskin was collected anonymously as discarded tissue according to an IRB protocol. Samples were collected immediately after harvest in DMEM, then fixed in 2% paraformaldehyde for 2 hrs, then stored in 30% sucrose in 1×PBS overnight for cryosectioning, and sectioned in 6 μm slices at −30° C. Transfected (stable and transient) and untransfected HeLa cells were grown to near confluence in coverslip bottom dishes. All cells were rinsed with PBS and fixed with 2% paraformaldehyde. Subsequently, tissue and HeLa cells were processed similarly: following permeabilization with 0.1% Triton X, cells were blocked with 2% BSA. A human Cx47 antibody (ab) was obtained from the S. Scherer laboratory: polyclonal rabbit against amino acids 344-399 in the cytoplasmic C-terminal tail; we used human CNS tissue and positive oligodendrocyte staining as a positive control and primary antibody delete and rabbit IgG as negative controls (data not shown). Cx47 ab was diluted in 0.5% BSA in a 1:200 ratio, applied to cells and incubated at RT for one hour. Mouse monoclonal Proxl (Chemicon) was used as a lymphatic marker for the foreskin samples. Cells were incubated with the secondary abs (Donkey Anti-Rabbit Cy5 and Donkey Anti-Mouse Cy3; Invitrogen) for one hour at RT and washed; Draq5 was used as a nuclear marker. HeLa images were acquired with an inverted Olympus Fluoview 1000 Confocal Microscope 100× oil, 1.4 NA objective. Foreskin images were acquired on a Zeiss Meta LSM 510 inverted confocal microscope with 40× oil, 1.3 N.A. objective. LECs (primary human microvascular adult dermal lymphatics; Lonza) were grown in fibronectin coated coverslip bottom MatTeks dishes in EGM™-2 MV—Microvascular Endothelial Cell Medium-2 (Lonza Inc.) to approximately 80% confluence, and prepared similarly but a commercially available (AbCam) Cx47 ab, polyclonal rabbit against amino acids 41-70 in the human sequence was used along with Drag 5 nuclear marker and phalloidin to mark f-actin.
Immunofluorescence microscopy determines the presence or absence of Cx47 gap junction plaques when the constructs are transiently expressed in HeLa cells. Cx plaques reflect a physiologic accumulation of Cx channels in the cell membrane between cells (tens to thousands of channels); thus plaques are indicative of normal trafficking and gap junction formation at the cell membrane.
Immunofluorescence microscopy determines the presence or absence of Cx47 gap junction plaques when the constructs are transiently expressed in HeLa cells. A human Cx47 antibody was obtained: polyclonal rabbit against amino acids 344-399 in the cytoplasmic C-terminal tail (Orthmann-Murphy J L, et al. Mol Cell Neurosci 2007; 34:629-41); we used human CNS tissue and positive oligodendrocyte staining as a positive control and primary antibody delete as a negative control (data not shown). Cultured HeLa cells were routinely fixed and stained with the primary antibodies against Cx47, along with a nuclear marker, and transfected cells were identified by their EGFP signal. Plaques were imaged using an Olympus Fluoview 1000 confocal microscope, 100× oil objective.

[2] = test system: HeLa cells; experiment: Calcein AM scrape loading and dye transfer in stably transfected HeLa cells; format: cell-based, human; settings: for dye transfer: ratio, rate normalized to untransfected HeLa cells, Calcein AM scrape loading, 10 min, stably transfected HeLa, mean ± SEM
Protocol: A confluent monolayer of HeLa cells (untransfected and stably transfected, as described above) was grown in DMEM with 10% FBS in coverslip bottom plates (MatTek) and placed in a temperature controlled microincubator (Zeiss). A 10×, 0.4 NA objective was used to collect DIC and GFP images every 5 seconds for 10 minutes without changing media. A pipette loaded with 1 μl Calcein AM (Invitrogen), a gap junction permissive dye with molecular weight 662, −4 charge when intracellular and fluorescent, was used to create a scrape across the monolayer. At least 5 replicate dishes were analyzed on the same day, and WT hCx47 expressing HeLas were grown and assayed as a concurrent control; assays were performed on at least 2 different batches of HeLa cells on different days. Quantitation of the rate of spread was calculated using MetaMorph, by obtaining integrated intensity at the 10th time point, within the first minute of imaging, and then at the endpoint at 10 min, and subtracting the initial intensity from that at the endpoint. Results are reported as mean and SEM, and tested for significance (p<0.05) using an unpaired Student's t-test.
In these mutants, Cx47 appears to concentrate in the ER. Unlike electrophysiologic measurements, dye transfer assays are used to assess GJIC of relatively large molecules. We also found significant differences in GJIC in HeLa cells overexpressing Cx47 lymphedema associated mutations by assessing rates of dye transfer in a conventional scrape assay using stably transfected HeLa cells normalized to rates in untransfected HeLa cells (FIG. 7D; Table 3). […] It is not surprising that the mutants show some differences in GJIC between the electrophysiologic and dye transfer assays given that they are designed to measure different kinds of transport and that Cx channel permeability is now believed to be governed by factors including molecular shape, charge and size, in addition to channel conformation and composition.

Molecule	Cx47 plaque formation (in words) [1]	Cx47 plaque formation (in words) ([1]; listed as WT-hCx47-EGFP)	dye transfer [2]	Calcein AM dye transfer compared to WT-hCx47 transfected HeLa cells (in words) ([2]; stably transfected HeLa cells, scrape assay)
B1	Presence	Cx47 intercellular plaques	1.80	–
B2	Cx47 intercellular plaques	–	1.05	less
